This experiment deals with T1, myc-NIK (wild-type NIK fused N-terminally to a six myc tag) (UniProt Q99558 1-947).
T1 construct: pCS3MTNIK expression vector, co-transfected into HEK-293T cells; also called NF-κB-inducing kinase; MAP3K14; not shown: six myc tag at the N-terminus
In words: co-immunoprecipitation from HEK-293T lysate: NIK immunoprecipitated with anti-NIK antibody, co-precipitated SIVA detected by Western blot. The protocol: FLAG-SIVA2 or FLAG-SIVA3 expression vectors were co-transfected with NIK expression vector into HEK-293T cells. 24 h later, cells were lysed, NIK was immunoprecipitated with anti-NIK antibody and co-precipitated SIVA was monitored by western Blotting. WB=Western Blot, TLC=Total cell lysate, IP=immunoprecipitation.
Next, it was explored whether SIVA3 binds NIK. FLAG-SIVA2 (8 μg) or FLAG-SIVA3 (8 μg) were co-transfected with myc-NIK (7 μg) into HEK-293T cells (1.5×10⁶ seeded in 90 mm plate, transfected using calcium phosphate method). 24 h later, cells were lysed, NIK was immunoprecipitated with anti-NIK antibody and co-precipitated SIVA was detected by western Blotting.

Results on one molecule are retold here after patent US20110035817A1 (YEDA RESEARCH AND DEVELOPMENT, published 2011).

T1 sequence (Q99558 whole entry, the tested form may be a part): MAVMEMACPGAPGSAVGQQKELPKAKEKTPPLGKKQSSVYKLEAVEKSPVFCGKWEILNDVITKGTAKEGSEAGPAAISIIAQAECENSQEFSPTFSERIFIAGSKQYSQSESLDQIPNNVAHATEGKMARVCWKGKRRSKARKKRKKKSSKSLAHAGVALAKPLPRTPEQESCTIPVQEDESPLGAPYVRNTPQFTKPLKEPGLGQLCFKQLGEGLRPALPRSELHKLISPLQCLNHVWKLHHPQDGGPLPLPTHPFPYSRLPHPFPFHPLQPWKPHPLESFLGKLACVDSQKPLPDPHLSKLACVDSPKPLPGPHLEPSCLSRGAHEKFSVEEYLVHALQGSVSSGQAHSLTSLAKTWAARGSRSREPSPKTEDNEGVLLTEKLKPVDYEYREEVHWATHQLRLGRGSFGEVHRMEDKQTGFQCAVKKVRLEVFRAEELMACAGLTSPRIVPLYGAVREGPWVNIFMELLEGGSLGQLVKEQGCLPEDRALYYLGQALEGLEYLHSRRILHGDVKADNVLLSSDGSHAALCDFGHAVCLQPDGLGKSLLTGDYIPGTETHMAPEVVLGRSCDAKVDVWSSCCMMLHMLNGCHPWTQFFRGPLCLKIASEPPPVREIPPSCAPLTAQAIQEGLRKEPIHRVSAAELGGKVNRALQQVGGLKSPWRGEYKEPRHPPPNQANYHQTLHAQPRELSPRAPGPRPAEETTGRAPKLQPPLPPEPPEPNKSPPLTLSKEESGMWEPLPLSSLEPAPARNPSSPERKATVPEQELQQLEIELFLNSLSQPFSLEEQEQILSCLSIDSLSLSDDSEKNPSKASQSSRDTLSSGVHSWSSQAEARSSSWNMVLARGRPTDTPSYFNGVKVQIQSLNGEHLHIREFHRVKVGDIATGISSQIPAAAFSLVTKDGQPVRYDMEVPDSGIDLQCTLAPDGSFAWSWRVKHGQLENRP

B1: FLAG-SIVA3 (other)
chain: MPKRSCPFADVAPLQLKVRVSQRELSRGVCAERYSQEVFAAVTCTRKCCAPAVPCSRPEAGSSRLPSPGATPCMAAFPGRALGVHTELWGRREGCLLHVLFCILMTE
notes: Expressed from pcDNA3 in HEK-293T cells and tested in lysate by co-immunoprecipitation; not shown: FLAG tag
In the case of B1, the binding result is listed as “no binding”.
